Starred links: 1 amine or outer side, 2 acyl side, 3 side chain; linkers in the order of their positions; H or OH if unused. Positions of bridges follow the written chain, without caps; N, C: chain ends. Non-standard residues stand in square brackets, D forms with d. No end group written: not given here. TATA = O=C(CC[*:1])N1CN(C(=O)CC[*:2])CN(C(=O)CC[*:3])C1; 1Nal = N[C@@H](Cc1cccc2ccccc12)C(=O)O; Hyp = O=C(O)[C@@H]1C[C@@H](O)CN1; hArg = N=C(N)NCCCC[C@H](N)C(=O)O; Pen = CC(C)(S)[C@H](N)C(=O)O; hCys = N[C@@H](CCS)C(=O)O; βAla = NCCC(=O)O; Sar = CNCC(=O)O
Key:
[1] = target: Human Nectin-4 (human) (UniProt Q96NY8); assay: SPR (Biacore 8K), Nectin-4 amine-coupled on CM5 chip, compound as analyte, multi-cycle kinetics, 1:1 model; average of two tests
[2] = target: Human Nectin-4 (human) (UniProt Q96NY8); assay: SPR (Biacore 8K), Nectin-4 amine-coupled on CM5 chip, compound as analyte, multi-cycle kinetics, 1:1 model

Chain of Human Nectin-4 (human) (Q96NY8 32-349 limits assumed): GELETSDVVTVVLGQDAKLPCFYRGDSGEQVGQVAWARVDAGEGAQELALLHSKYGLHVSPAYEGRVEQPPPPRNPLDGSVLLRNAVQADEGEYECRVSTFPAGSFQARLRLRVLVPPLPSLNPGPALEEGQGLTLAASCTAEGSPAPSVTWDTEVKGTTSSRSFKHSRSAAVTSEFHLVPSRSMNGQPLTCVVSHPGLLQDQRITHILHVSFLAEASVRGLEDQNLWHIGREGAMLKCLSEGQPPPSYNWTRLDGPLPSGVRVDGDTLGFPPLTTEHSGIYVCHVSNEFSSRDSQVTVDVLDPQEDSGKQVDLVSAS

B1: Acetate salt of PDC_2 (peptide)
peptide: [βAla][Sar][Sar][Sar][Sar][Sar][Sar][Sar][Sar][Sar][Sar]K[Sar]DCP[1Nal][dD][Pen]M[hArg]DWSTP[Hyp]WC-NH2
modifications: lactam 12-14; linker 15-19-29 via TATA; also: drug-linker INT_1 coupled, site not given here, acetate salt
B1 showed a Kd [1] of 0.43 nM.

B2: Acetate salt of PDC_3 (peptide)
peptide: [βAla][Sar][Sar][Sar][Sar][Sar][Sar][Sar][Sar][Sar][Sar]K[Sar]DCP[1Nal][dD][Pen]M[hArg]DWSTP[Hyp]W[hCys]
modifications: not fully specified (C-terminus); cysteine pairing not given here; also: further groups not given here, drug-linker INT_1 coupled, site not given here, acetate salt
With B2 the Kd [2] was 4.13 nM.

B3: Acetate salt of PDC_1 (peptide)
peptide: [βAla][Sar][Sar][Sar][Sar][Sar][Sar][Sar][Sar][Sar][Sar]K[hArg]DCP[1Nal][dD][Pen]M[hArg]DWSTP[Hyp]WC-NH2
modifications: lactam 12-14; linker 15-19-29 via TATA; also: drug-linker INT_1 coupled, site not given here, acetate salt
B3 showed a Kd [2] of 1.4 nM.
